Experimental data taken from the supplement of paper PMC9732359.
± gives the uncertainty stated by the source.

Test: protein stability index of a GFP-peptide fusion (yeast GPS) (PSI 1-4); higher = more stable; sorted into four equal gates, so the index is relative within each strain
Conditions: ubr1∆
Summary of the method: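 Sequencing reads from sorted gates were used to score each peptide. The library consisted of tiled 17-residue yeast protein peptides fused downstream of GFP on a Cherry-expressing plasmid, pooled and carried in yeast. Mid-log cultures in leucine-free medium were split into four equal gates by GFP/Cherry ratio, and each gate's plasmids were PCR-amplified and Illumina-sequenced. The protein stability index adds up, over all gates, the read frequency multiplied by the gate number.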

Sequence | protein stability index
YGEYPPTKLLVSEVAKI [PRE8] | 2.93 ± 0.078
YGFEDESAPITAEDSWA [RPB2] | 3.17 ± 0.053
YGFKQEIFDVTSNGLKK [FAS1] | 2.89 ± 0.047
YGKVYKAKRQINSGTNS [SSN3] | 2.68 ± 0.053
YGQRAVLKFAAHTGATP [RPS0B] | 2.66 ± 0.041
YGTENKDGEDIIFNYVP [CSL4] | 3.12 ± 0.065
YGYPSYSTIRQLVYKRG [RPL7A] | 1.41 ± 0.047
YGYWFDCRMGNFYIQYD [AAR2] | 2.49 ± 0.034
YHFPIFNKYADPTLTTT [RPN4] | 2.3 ± 0.036
YHGLYTNYEMSYWQKSY [LIN1] | 2.17 ± 0.041
YIDIRTNNVLRKLGLLG [MTW1] | 1.5 ± 0.056
YIDYSSKRYIPSVNDFV [RRP40] | 2.6 ± 0.078
YIEDGRNPDIYTREFVE [NUT2] | 3.33 ± 0.04
YIFCISRTIGMVVNGPI [SCL1] | 1.56 ± 0.034
YIIQGSNTNDNISIITL [RGR1] | 2.22 ± 0.063
YIKNILEAPVKSIENPT [YLR335W/NUP2] | 2.13 ± 0.057
YISFIKDDRFVPVRKFK [RPN2] | 2.85 ± 0.031
YISKIGEKIDSNKPIFL [SWI1] | 3.19 ± 0.09
YITLKATFLKDDLPYYV [QCR2] | 2.44 ± 0.039
YKAQADTFYMNVESVGS [RPB3] | 3.07 ± 0.079
YKCTAAMEKYLLSKSKI [MTW1] | 2.69 ± 0.03
YKEIRDVSRVAAVETLY [RPL20A] | 1.64 ± 0.069
YKKSTENESTNYQYKIQ [MED7] | 2.59 ± 0.035
YKNHELLKLERKKTEAV [SNF2] | 3.13 ± 0.064

Sequence | protein stability index
YLADDIDADSLEDIYTS [RPL5] | 2.37 ± 0.065
YLEELQRKKQSDVLRFL [RPL15A] | 1.5 ± 0.097
YLHQNWVLHRDLKPANI [SSN3] | 2.38 ± 0.14
YLINGKRFKRKDNAKIS [SRP68] | 1.63 ± 0.049
YLKDNITLLTRQRELLI [GRR1] | 1.76 ± 0.052
YLLTQQQIWKSPNFKNY [SOH1] | 2.19 ± 0.03
YLQETAISGKKTTYYYY [RPC82] | 3.07 ± 0.075
YMDCLLYDLRASYAKIE [SNU114] | 1.74 ± 0.092
YMQRTVEEAHDFNMKLA [RPB2] | 2.99 ± 0.062
YMRKQVGVGKLNKLYGG [RPS19A] | 3.41 ± 0.12
YNILGNLGIPKIAYRGV [SSN2] | 1.89 ± 0.1
YNMYDAYGNWFNGLKPL [PRP8] | 3.13 ± 0.048
YNTRKNAVTAAAANNNI [GAL11] | 2.46 ± 0.029
YPLLIRMSYGSHDKKTK [SRP14] | 2.6 ± 0.053
YPLWVMAKQLIRLANES [CSN12] | 1.4 ± 0.059
YPSKTLKTDGVRAVSIT [FAS2] | 2.23 ± 0.061
YPVRIPRLDTSKEFSAY [YJR042W/NUP85] | 2.91 ± 0.058
YQELFIQPKNSDDQQEA [YML103C/NUP188] | 2.64 ± 0.054
YQKKQYKDSLALINDLL [RPN6] | 2.86 ± 0.13
YQLNDRNVTKGDIVRML [SMC3] | 3.02 ± 0.11
YQSLKQIVQVLKQPPFQ [SSN8] | 1.46 ± 0.097
YQSRGIDAMKAVAEAYN [RPN6] | 2.65 ± 0.045
YQTRARQKARTDAHTPL [RPR2] | 3.27 ± 0.078
YQVDEDVKSSLSKVFSD [YJL039C/NUP192] | 2.93 ± 0.22

Sequence | protein stability index
YQVEYAFKATNQTNINS [SCL1] | 3.06 ± 0.073
YQWRDLIARRDDESPRF [RRP6] | 3.26 ± 0.068
YRKTEGIFEKAKAKAVT [YMR153W/NUP53] | 2.48 ± 0.075
YRPLTPSSEVYSPIEKE [RRP6] | 2.91 ± 0.066
YRSHIFATNEERQMNFL [SWI3] | 2.72 ± 0.051
YSEHLKPYDINVVLVTN [DIS3] | 2.47 ± 0.055
YSIALSNVAAIFKGIGG [GAL11] | 1.48 ± 0.048
YSNEPFNTNFDDEFGDL [SNF6] | 3.06 ± 0.042
YSPIEKESPWKILMYQY [RRP6] | 1.44 ± 0.054
YSPSNEISISFDVNNID [YDL116W/NUP84] | 2.58 ± 0.067
YSPTSPSYSPTSPGYSP [RPO21] | 2.95 ± 0.034
YSPTSPSYSPTSPSYSP [RPO21] | 2.868 ± 0.02
YSQSPPRSPGRSPTRRL [SMC4] | 3.04 ± 0.11
YSTCPSETDLNDIPLGS [SRB8] | 2.47 ± 0.078
YSVLLESPLSVAIQQGD [YML103C/NUP188] | 1.19 ± 0.077
YTEFIDSFIEKIIPKDI [ITC1] | 1.81 ± 0.053
YTEQFQHYKNNSISSQP [SSN2] | 2.98 ± 0.1
YTFKTSMRVKPSASLKL [YMR129W/POM152] | 2.8 ± 0.097
YVDFVPMYKELWINYIK [POP4] | 2.7 ± 0.047
YVQVRQPIFVAHTAGRY [RPS5] | 1.74 ± 0.068
YYNEISRDLDISSSTQC [POP6] | 2.3 ± 0.043
YYYNTKIYKLENGERKL [YMR129W/POM152] | 3.18 ± 0.04
